The source of these data is patent publication US20160108091A1.

The target in this assay is human APJ receptor (hAPJ) (human) (UniProt P35414). Description: cell-based or functional assay.
Chain of human APJ receptor (hAPJ) (human) (P35414 whole entry): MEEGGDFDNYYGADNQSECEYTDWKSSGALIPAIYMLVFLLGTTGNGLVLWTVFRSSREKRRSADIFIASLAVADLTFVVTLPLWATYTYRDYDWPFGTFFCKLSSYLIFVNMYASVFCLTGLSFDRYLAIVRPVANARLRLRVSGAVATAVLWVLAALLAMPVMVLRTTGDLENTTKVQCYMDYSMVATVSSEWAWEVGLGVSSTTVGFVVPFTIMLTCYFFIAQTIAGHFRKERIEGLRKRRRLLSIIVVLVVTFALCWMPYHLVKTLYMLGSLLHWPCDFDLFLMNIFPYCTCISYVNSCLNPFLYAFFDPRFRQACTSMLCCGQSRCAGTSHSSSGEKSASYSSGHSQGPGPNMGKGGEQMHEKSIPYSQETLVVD

The substance “Conjugate of AH-Fc with apelin cyclic peptide: AH-Fc-BCN clicked to NH2-AzidoLys-GGGGS-Q-R-P-C-L-S-C-K-G-P-Dnle-Phenethylamine (from UniProt P0DOX5 223-449) (Fc fusion)” came in with a hAPJ Ca^2+ Flux EC50 of 16.3 nM.
To “Fc-Apelin conjugate using sortase: Fc-GGGGS-LPET-GGGGG-QRPC*LSC*KGP(D-Nle)Phenethylamine (Fc fusion)” belongs 28.9 nM.
